Measured values reported in PMC2171992 (The Journal of Cell Biology, 2004).

Legend:
muscle actin [1] = target: T1, muscle actin (UniProt P68135 1-377, labeled with pyrene); assay: seeded actin assembly kinetics
muscle actin [2] = target: T1, muscle actin; assay: apparent critical concentration for actin polymerization at steady state
muscle actin [3] = target: T1, muscle actin; assay: as above; remark: listed apart in the source

Row | Kd (muscle actin [1]) | koff (muscle actin [1]) | kon (muscle actin [1]) | Kd (muscle actin [2]) | Kd (muscle actin [3]) | Binder
1 | 91 nM | 0.0259 s⁻¹ | 300000 M⁻¹ s⁻¹ | 250 nM | – | Cap1 (W251A)/Cap2 (complex) chain 1: MSSSKFEEVINKIINDSPPGELREVYDDLIKITSENSKNTILDAIENYNVQNCIPIEVNGNSVIISKYNKEGAKFFDPVNSVIFSVNHLERKGLDIEPYEFTHAKIEKGQLKELHDKLHEYLLQSFPGDVSFAVYPVPEEISKISIIIVSTKYNPNNFWNGHWRSSYIYDLETRELSGQISTQVHYYEDGNVSFQSGKDINQSNVDDVVCTIRDIETNFENDLDLSFFDLNEKQFKALRRRLPVTRSKINAGSAIGSYRLGKNAAEGK chain 2: MSDAQFDAALDLLRRLNPTTLQENLNNLIELQPNLAQDLLSSVDVPLSTQKDSADSNREYLCCDYNRDIDSFRSPWSNTYYPELSPKDLQDSPFPSAPLRKLEILANDSFDVYRDLYYEGGISSVYLWDLNEEDFNGHDFAGVVLFKKNQSDHSNWDSIHVFEVTTSPSSPDSFNYRVTTTIILHLDKTKTDQNSHMMLSGNLTRQTEKDIAIDMSRPLDVIFTSHVANLGSLIEDIESQMRNLLETVYFEKTRDIFHQTKNAAIASSAEEANKDAQAEVIRGLQSL
2 | 176 nM | 0.0275 s⁻¹ | 156000 M⁻¹ s⁻¹ | 400 nM | – | Cap1 (R239A)/Cap2 (complex) chain 1: MSSSKFEEVINKIINDSPPGELREVYDDLIKITSENSKNTILDAIENYNVQNCIPIEVNGNSVIISKYNKEGAKFFDPVNSVIFSVNHLERKGLDIEPYEFTHAKIEKGQLKELHDKLHEYLLQSFPGDVSFAVYPVPEEISKISIIIVSTKYNPNNFWNGHWRSSYIYDLETRELSGQISTQVHYYEDGNVSFQSGKDINQSNVDDVVCTIRDIETNFENDLDLSFFDLNEKQFKALARRLPVTRSKINWGSAIGSYRLGKNAAEGK chain 2: MSDAQFDAALDLLRRLNPTTLQENLNNLIELQPNLAQDLLSSVDVPLSTQKDSADSNREYLCCDYNRDIDSFRSPWSNTYYPELSPKDLQDSPFPSAPLRKLEILANDSFDVYRDLYYEGGISSVYLWDLNEEDFNGHDFAGVVLFKKNQSDHSNWDSIHVFEVTTSPSSPDSFNYRVTTTIILHLDKTKTDQNSHMMLSGNLTRQTEKDIAIDMSRPLDVIFTSHVANLGSLIEDIESQMRNLLETVYFEKTRDIFHQTKNAAIASSAEEANKDAQAEVIRGLQSL
3 | – | – | – | – | ≥ 100 µM | Cap1(Δ239–268)/Cap2(Δ261–287) (complex) chain 1: MSSSKFEEVINKIINDSPPGELREVYDDLIKITSENSKNTILDAIENYNVQNCIPIEVNGNSVIISKYNKEGAKFFDPVNSVIFSVNHLERKGLDIEPYEFTHAKIEKGQLKELHDKLHEYLLQSFPGDVSFAVYPVPEEISKISIIIVSTKYNPNNFWNGHWRSSYIYDLETRELSGQISTQVHYYEDGNVSFQSGKDINQSNVDDVVCTIRDIETNFENDLDLSFFDLNEKQFKAL chain 2: MSDAQFDAALDLLRRLNPTTLQENLNNLIELQPNLAQDLLSSVDVPLSTQKDSADSNREYLCCDYNRDIDSFRSPWSNTYYPELSPKDLQDSPFPSAPLRKLEILANDSFDVYRDLYYEGGISSVYLWDLNEEDFNGHDFAGVVLFKKNQSDHSNWDSIHVFEVTTSPSSPDSFNYRVTTTIILHLDKTKTDQNSHMMLSGNLTRQTEKDIAIDMSRPLDVIFTSHVANLGSLIEDIESQMRNLLETVYFEKTRDIFHQT

The remaining lines, values behind:

Row | Binder | Kd (muscle actin [1]) | koff (muscle actin [1]) | kon (muscle actin [1]) | Kd (muscle actin [2]) | Kd (muscle actin [3])
4 | wild-type yeast capping protein (Cap1/Cap2) (complex) chain 1: MSSSKFEEVINKIINDSPPGELREVYDDLIKITSENSKNTILDAIENYNVQNCIPIEVNGNSVIISKYNKEGAKFFDPVNSVIFSVNHLERKGLDIEPYEFTHAKIEKGQLKELHDKLHEYLLQSFPGDVSFAVYPVPEEISKISIIIVSTKYNPNNFWNGHWRSSYIYDLETRELSGQISTQVHYYEDGNVSFQSGKDINQSNVDDVVCTIRDIETNFENDLDLSFFDLNEKQFKALRRRLPVTRSKINWGSAIGSYRLGKNAAEGK chain 2: MSDAQFDAALDLLRRLNPTTLQENLNNLIELQPNLAQDLLSSVDVPLSTQKDSADSNREYLCCDYNRDIDSFRSPWSNTYYPELSPKDLQDSPFPSAPLRKLEILANDSFDVYRDLYYEGGISSVYLWDLNEEDFNGHDFAGVVLFKKNQSDHSNWDSIHVFEVTTSPSSPDSFNYRVTTTIILHLDKTKTDQNSHMMLSGNLTRQTEKDIAIDMSRPLDVIFTSHVANLGSLIEDIESQMRNLLETVYFEKTRDIFHQTKNAAIASSAEEANKDAQAEVIRGLQSL | 1.2 nM | 0.00156 s⁻¹ | 1.16e+06 M⁻¹ s⁻¹ | 4 nM | –
5 | Cap1/Cap2Δ(264–287) (complex) chain 1: MSSSKFEEVINKIINDSPPGELREVYDDLIKITSENSKNTILDAIENYNVQNCIPIEVNGNSVIISKYNKEGAKFFDPVNSVIFSVNHLERKGLDIEPYEFTHAKIEKGQLKELHDKLHEYLLQSFPGDVSFAVYPVPEEISKISIIIVSTKYNPNNFWNGHWRSSYIYDLETRELSGQISTQVHYYEDGNVSFQSGKDINQSNVDDVVCTIRDIETNFENDLDLSFFDLNEKQFKALRRRLPVTRSKINWGSAIGSYRLGKNAAEGK chain 2: MSDAQFDAALDLLRRLNPTTLQENLNNLIELQPNLAQDLLSSVDVPLSTQKDSADSNREYLCCDYNRDIDSFRSPWSNTYYPELSPKDLQDSPFPSAPLRKLEILANDSFDVYRDLYYEGGISSVYLWDLNEEDFNGHDFAGVVLFKKNQSDHSNWDSIHVFEVTTSPSSPDSFNYRVTTTIILHLDKTKTDQNSHMMLSGNLTRQTEKDIAIDMSRPLDVIFTSHVANLGSLIEDIESQMRNLLETVYFEKTRDIFHQTKNA | 8 nM | 0.017 s⁻¹ | 2.1e+06 M⁻¹ s⁻¹ | 25 nM | –
6 | Cap1/Cap2Δ(261–287) (complex) chain 1: MSSSKFEEVINKIINDSPPGELREVYDDLIKITSENSKNTILDAIENYNVQNCIPIEVNGNSVIISKYNKEGAKFFDPVNSVIFSVNHLERKGLDIEPYEFTHAKIEKGQLKELHDKLHEYLLQSFPGDVSFAVYPVPEEISKISIIIVSTKYNPNNFWNGHWRSSYIYDLETRELSGQISTQVHYYEDGNVSFQSGKDINQSNVDDVVCTIRDIETNFENDLDLSFFDLNEKQFKALRRRLPVTRSKINWGSAIGSYRLGKNAAEGK chain 2: MSDAQFDAALDLLRRLNPTTLQENLNNLIELQPNLAQDLLSSVDVPLSTQKDSADSNREYLCCDYNRDIDSFRSPWSNTYYPELSPKDLQDSPFPSAPLRKLEILANDSFDVYRDLYYEGGISSVYLWDLNEEDFNGHDFAGVVLFKKNQSDHSNWDSIHVFEVTTSPSSPDSFNYRVTTTIILHLDKTKTDQNSHMMLSGNLTRQTEKDIAIDMSRPLDVIFTSHVANLGSLIEDIESQMRNLLETVYFEKTRDIFHQT | 7.8 nM | 0.0163 s⁻¹ | 2.09e+06 M⁻¹ s⁻¹ | 25 nM | –
7 | Cap1Δ(239–268)/Cap2Δ(264–287) (complex) chain 1: MSSSKFEEVINKIINDSPPGELREVYDDLIKITSENSKNTILDAIENYNVQNCIPIEVNGNSVIISKYNKEGAKFFDPVNSVIFSVNHLERKGLDIEPYEFTHAKIEKGQLKELHDKLHEYLLQSFPGDVSFAVYPVPEEISKISIIIVSTKYNPNNFWNGHWRSSYIYDLETRELSGQISTQVHYYEDGNVSFQSGKDINQSNVDDVVCTIRDIETNFENDLDLSFFDLNEKQFKAL chain 2: MSDAQFDAALDLLRRLNPTTLQENLNNLIELQPNLAQDLLSSVDVPLSTQKDSADSNREYLCCDYNRDIDSFRSPWSNTYYPELSPKDLQDSPFPSAPLRKLEILANDSFDVYRDLYYEGGISSVYLWDLNEEDFNGHDFAGVVLFKKNQSDHSNWDSIHVFEVTTSPSSPDSFNYRVTTTIILHLDKTKTDQNSHMMLSGNLTRQTEKDIAIDMSRPLDVIFTSHVANLGSLIEDIESQMRNLLETVYFEKTRDIFHQTKNA | 33400 nM | 0.012 s⁻¹ | 370 M⁻¹ s⁻¹ | – | –
